# Test results from patent US6699662.
# Target: T1, SarA (staphylococcal accessory regulator A), strain DB (Staphylococcus aureus) (UniProt Q2G2U9)
# T1 sequence: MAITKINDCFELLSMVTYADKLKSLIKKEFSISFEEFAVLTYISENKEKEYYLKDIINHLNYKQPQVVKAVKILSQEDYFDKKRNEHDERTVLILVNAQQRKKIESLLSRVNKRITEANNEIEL
# Assay: EMSA
# Conditions: same buffer; 1 dimer per DNA; dG dissociation 12.1 kcal/mol
sequence,measurement,value
"AC oligo (45 bp, footprint region of Chien and Cheung)",Kd,1 nM
